Measured values: US20110318339A1 (FABRUS, published 2011)

Columns and labels:
[1] = molecular target: T1, rHuman IGF-1 sR, (IGF-1 sR), CF (Cat# 391-GR) (human, UniProt P08069 31-932); test: Multispot ECL; Fab 2.0 nM
T1 construct: Bought from R&D Systems; also called insulin-like growth factor-1 soluble receptor
Procedure: (§1) An 150 μl aliquot of 1% Bovine Serum Albumin (BSA) in Tris-buffered Saline Tween (TBST) was added to each well and allowed to incubate for 30 min at 20° C. followed by washing and tap drying to completely remove any residual solution. Subsequently, a 12.5 μl aliquot of 1% BSA TBST was added to each well followed by the addition of a 12.5 μl aliquot of a purified Fab. The plate was sealed and incubated for 1 hour at 20° C. with shaking.
(§2) Detection antibodies were prepared by individually conjugating both goat anti-human Kappa light chain polyclonal antibody (K3502-1MG, Sigma-Aldrich) and goat anti-human Lambda light chain polyclonal antibody (L1645-1 mL, Sigma-Aldrich) with Ruthenium (II) tris-bipyridine-(4-methylsulfone)-N-hydroxysuccinimide (SULFO-TAG NHS-ester, Meso Scale Discovery) according to the manufacturer's instructions. TAG-detection antibody at 25 μl was added to each well and allowed to incubate for 1 hour at 20° C. with shaking. Finally, 15 μl of Read Buffer P with Surfactant (Cat # R92PC-1, Meso Scale Discovery) was added to each well. The electrochemiluminescence was measured using a Sector Imager 2400 (Meso Scale Discovery). Data was analyzed by comparing the ECL signals for an antigen to the blank of each well. A signal to blank ratio of 4 or more was considered a “Hit” Fab.
(§3) To confirm a “Hit” from the initial Multispot ECL screening, a Fab concentration dependent titration was carried out to determine the Fab-antigen binding affinity.

[2] = molecular target: T2, rHuman CD44/Fc Chimera, CF (Cat# 3660-CD) (human, UniProt P16070 21-220); test: Multispot ECL; Fab 2.0 nM
T2 construct: Bought from R&D Systems
Procedure: as §1, §2, §3

[3] = molecular target: T3, rHuman EGF R/Fc Chimera, CF (Cat# 344-ER) (human, UniProt P00533 25-645); test: Multispot ECL; Fab 2.0 nM
T3 construct: Bought from R&D Systems; also called epidermal growth factor receptor (EGF R)
Procedure: as §1, §2, §3

[4] = molecular target: T4, Recombinant Human DLL4 (Cat# 1506-D4/CF) (human, UniProt Q9NR61 27-529); test: Multispot ECL; Fab 2.0 nM
T4 construct: Bought from R&D Systems; also called rHuman DLL4; hDLL4
Procedure: as §1, §2, §3

[5] = molecular target: T5, rHuman HGF R/c-MET/Fc Chimera, CF (Cat# 358-MT/CF) (human, UniProt P08581 25-932); test: Multispot ECL; Fab 2.0 nM
T5 construct: Bought from R&D Systems; also called HGF R/Fc; hepatocyte growth factor receptor (HGF R/c-Met)
Procedure: as §1, §2, §3

[6] = molecular target: T6, rHuman ErbB2/Fc Chimera, CF (Cat# 1129-ER) (human, UniProt P04626 23-652); test: Multispot ECL; Fab 2.0 nM
T6 construct: Bought from R&D Systems; also called human epidermal growth factor 2 receptor (ErbB2)
Procedure: as §1, §2, §3

[7] = molecular target: T7, rHuman Notch-1/Fc Chimera, CF (Cat# 3647-TK) (human, UniProt P46531 19-526); test: Multispot ECL; Fab 2.0 nM
T7 construct: Bought from R&D Systems
Procedure: as §1, §2, §3

[8] = molecular target: T8, rHuman Erythropoietin R/Fc Chimera, CF (Cat# 963-ER) (human, UniProt P19235 25-250); test: Multispot ECL; Fab 2.0 nM
T8 construct: Bought from R&D Systems; also called EPO R/Fc; Epo R/Fc chimera
T8 sequence (looked up): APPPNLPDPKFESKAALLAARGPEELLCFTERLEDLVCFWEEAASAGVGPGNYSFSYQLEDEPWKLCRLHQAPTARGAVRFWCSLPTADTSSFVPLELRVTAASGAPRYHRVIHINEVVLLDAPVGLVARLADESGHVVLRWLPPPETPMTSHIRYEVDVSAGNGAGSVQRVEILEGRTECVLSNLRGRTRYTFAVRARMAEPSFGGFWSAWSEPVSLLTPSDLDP
Procedure: as §1, §2, §3

[9] = molecular target: T1, rHuman IGF-1 sR, (IGF-1 sR), CF (Cat# …); test: Multispot ECL; Fab 130 nM
Procedure: as §1, §2, §3

[10] = molecular target: T2, rHuman CD44/Fc Chimera, CF (Cat# …); test: Multispot ECL; Fab 130 nM
Procedure: as §1, §2, §3

[11] = molecular target: T3, rHuman EGF R/Fc Chimera, CF (Cat# …); test: Multispot ECL; Fab 130 nM
Procedure: as §1, §2, §3

[12] = molecular target: T4, Recombinant Human DLL4 (Cat# 1506-D4/CF); test: Multispot ECL; Fab 130 nM
Procedure: as §1, §2, §3

[13] = molecular target: T5, rHuman HGF R/c-MET/Fc Chimera, CF (Cat# …); test: Multispot ECL; Fab 130 nM
Procedure: as §1, §2, §3

[14] = molecular target: T6, rHuman ErbB2/Fc Chimera, CF (Cat# …); test: Multispot ECL; Fab 130 nM
Procedure: as §1, §2, §3

[15] = molecular target: T7, rHuman Notch-1/Fc Chimera, CF (Cat# …); test: Multispot ECL; Fab 130 nM
Procedure: as §1, §2, §3

[16] = molecular target: T8, rHuman Erythropoietin R/Fc Chimera, CF …; test: Multispot ECL; Fab 130 nM
Procedure: as §1, §2, §3

[17] = molecular target: T4, Recombinant Human DLL4 (Cat# 1506-D4/CF); test: Multispot ECL; Fab 32.5 nM
Procedure: as §1, §2, §3

[18] = molecular target: T6, rHuman ErbB2/Fc Chimera, CF (Cat# …); test: Multispot ECL; Fab 32.5 nM
Procedure: as §1, §2, §3

[19] = molecular target: T8, rHuman Erythropoietin R/Fc Chimera, CF …; test: Multispot ECL; Fab 32.5 nM
Procedure: as §1, §2, §3

ECL signal [1]: 367
ECL signal [2]: 447
ECL signal [3]: 424
ECL signal [4]: 605
ECL signal [5]: 356
ECL signal [6]: 382
ECL signal [7]: 539
ECL signal [8]: 433
ECL signal [9]: 1970
ECL signal [10]: 1750
ECL signal [11]: 1750
ECL signal [12]: 7740
ECL signal [13]: 1880
ECL signal [14]: 1530
ECL signal [15]: 1760
ECL signal [16]: 2150
ECL signal [17]: 2990
ECL signal [18]: 556
ECL signal [19]: 673
B1: Fab VH1-8_IGHD2-2*01_IGHJ6*01 & L12_IGKJ1*01 (Fab, V domains shown)
VH: QVQLVQSGAEVKKPGASVKVSCKASGYTFTSYDINWVRQATGQGLEWMGWMNPNSGNTGYAQKFQGRVTMTRNTSISTAYMELSSLRSEDTAVYYCARGGYCSSTSCYADYYYYYGMDVWGQGTTVTVSS
VL: not shown
